Reference: the RNAGym collection of RNA variant scans (doi:10.1073/pnas.2313332121)

B1: TPR t1 (parent)
chain: GACCAAUCUGCCCUCAGAGCUCGAGAACAUCUUCGGAUGCAGAGGAGGCAGGCUUCGGUGGCGCGAUAGCGCCAACGUCCUCAACCUCCAAUGCAUCCCACCACAUGAUGAUGCCUGAAGAGCCUUGGUUUUUUG

Variants of: B1
Assay: polymerase ribozyme fitness, log enrichment relative to wild type (log ratio); higher = more active; in vitro selection for triplet polymerase activity
In short: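 A heterodimeric triplet polymerase ribozyme had each of its subunits mutagenized by PCR into a library, which was transcribed. One round of in vitro selection, done in triplicate, annealed each library with a biotinylated primer, its partner subunit and triplets, then incubated it frozen at −7 °C before gel excision of extended constructs, streptavidin-bead capture and RT-PCR. Fitness is the logarithm of genotype enrichment relative to wild-type enrichment, based on Illumina sequencing of inputs and outputs and inverse-variance-weighted replicate averages. A base-2 logarithm is used, and genotypes were kept only with ≥10 input reads and ≥1 read per output.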

| Variant | polymerase ribozyme fitness (log ratio) |
| --- | --- |
| C70U | -0.414 |
| C70G | -2.49 |
| C70A | -1.51 |
| C70A C99U U109A | -6.83 |
| C70G A83G U112C | -3.8 |
| C70U U78C C101A | -1.6 |
| C70U C82U | -1.59 |
| C70U C82U G93U | -1.52 |
| G69C G117U | -3.02 |
| G69C G117C | -3.97 |
| G69U G71C | -2.52 |
| C70A G120U | -1.5 |
| C70G A111G | -3.21 |
| G69U C80U C102U C104U G120C | 1.02 |
| G69C U92G | -4.02 |
| G69C U92C | -2.26 |
| G69U C86U C101U C102U G120C | 0.552 |
| C70G A105G G113U U129G | -6.51 |
| C70G A108G | -3.92 |
| C70G C98U G117A | -5.6 |
| C70G C104G G110A | -6.86 |

| Variant | polymerase ribozyme fitness (log ratio) |
| --- | --- |
| G69U U78G U112A U133C | 3.16 |
| C70A U116A G120C | -1.85 |
| C70A C85U | -2.32 |
| C70A C85A | -3.25 |
| G69C C85A G117C A121C | -5.54 |
| C70U A84G | -1.86 |
| G69U G93C | -0.253 |
| G69U C79U A111G U129C U133A | -0.673 |
| G69U G128C | -1.01 |
| C70G U78G A119G | -1.17 |
| C70G U109G | -6.4 |
| C70U G77U C94A U116C A121C | -2.35 |
| C70G C97U | -2.56 |
| G69C C88G | -2.63 |
| C70A C73U C99U G107U U109C G117U | -6.35 |
| G69C U106C | -1.22 |
| C70A C94U | -1.23 |
| C70G G120U | -2.36 |
| C70G G120A | -1.34 |
| C70U G122U | -0.0756 |
| C70A A74U | -3.39 |

| Variant | polymerase ribozyme fitness (log ratio) |
| --- | --- |
| C70A C114U U125A | -5.48 |
| C70U C89A | -2.09 |
| C70U C89U | -1.12 |
| G69U C98U U112G | -1.16 |
| C70G C104A | -4.9 |
| C70U U78A | -1.17 |
| C70U G71A | -1.05 |
| C70U G71C | -1.67 |
| G69U U116G | -2.69 |
| G69U U116C | 0.102 |
| G69U C104A U116A C124U | -0.357 |
| C70U C115U C123G | -1.96 |
| G69U U78G U112A | 2.31 |
| G69U U106C A121U | 2.34 |
| G69C U132A | -2.03 |
| G69U G117C U130C | -2.79 |
| G69C C82U U126G | -3.1 |
| C70A U126C | -2.02 |
| C70A U126G | -3.42 |
| C70G U133G | -3.44 |
| G69U A75U C101U G113C U129A | -2.36 |

| Variant | polymerase ribozyme fitness (log ratio) |
| --- | --- |
| C70U G120A | 0.259 |
| C70U G120C | 0.206 |
| G69U C82U A111C U112A G122C | -0.869 |
| C70U G107U | -4.87 |
| C70U G107A | -5.06 |
| G69U C114U U130G | -1.33 |
| C70G C79U | -3.08 |
| G69C C85U C86A | -3.64 |
| C70U G127C | -2.15 |
| G69U G135C | 1.06 |
| C70G C82U | -3.14 |
| C70G C82A | -2.48 |
| G69C C104U | -1.49 |
| G69C C104A | -1.87 |
| G69U C99A U130G | -3.92 |
| C70U C88G U132C | -1.25 |
| C70U A95C U109A | -7.47 |
| C70U C82G U106C | -1.36 |
| G69C C114A | -2.28 |
| G69U C79A C88G | -0.43 |
